Assay: soluble on expression in E. coli; label from the status in PepcDB or PDB records

Sequence	soluble on expression in E. coli
MADHNDRGRQGEEIALKHLRQQGYQIEALNWQSGRRELDIVASTSRELVVVEVKTRTEGFLLAPEEAVDARKRRLISESAHHYVRMYAIDLPVRFDVISVVLSADGSCKRIEHRENAFPLLLKRSQRSTPRRRRL	not soluble
MGSDKIHHHHHHMKRLRVTLAQLNPTLGDFEGNLKKAIEALRVAEDRGSDLLVFPELFLPGYPPEDLMLRLSFLRENRKYLQKFAQHTRNLGVTVLMGFIDSDEDAYNAAAVVKDGEILGVYRKISLPNYGVFDERRYFKPGEELLVVKIGNIKVGVTICEDIWNPVEPSASLSLGEGVHLIANLSASPYHVGKPVLRKDYLSMKAYDYHVAMAYCNMVGGQDELVFDGGSMVVDASGEVINYGKLFEEEIITVDLDLDENLRVSLVDPRRRYMKTQNYPVKTVEAGNLREKSGHFEPVVNPLPVREEEMFRALITGLRDYVRKNGFEKVVIGLSGGMDSSLVAVIATEALGKENVKGVLMPSMYTSKESIEDAQTLAKNLGIETFIIPITDVFHSYLETLKGVFAGREPDITEENLQARIRGNYLMALSNKFGWLVLTTGNKSEMATGYATLYGDMAGGFAVIKDVYKTDVYRIGRWYNSWRGKEIIPENIFVKPPTAELRPGQTDQEKLPPYEVLDEILRLYIEEGLDPEEIASKGFDRKTVLDVTEMIRKNEYKRKQAAIGVKISTRAFGKDWRMPITNRFKEPL	not soluble
MAHHHHHHMLHNDKKNPREALDEEKPRKSNPGEVGTHRKARDTKGNKNKSGEGHITKVEGKADCEPHDVKRKGEKDKVLIQCKELQRKELEALKLIYVKDKELAIQNENDEKRDTIIHMHLNDENISDNVINLTFELPKDYPLKSFLLININVKNFTPDMNNYVNQEVYKDMPNYIAHENSILSIIYRINELVENIQNRKETLVDQSYSSSEEREENAEEEAFDSSKDQLIKDHVTFLYCSGMTYSQHRRVLARRLCYSHHILSLVKRTCIIKWAKELKIGGYSKIGYPGIIICEGPKEEVDFYINSLNKLRWKHFDCRGMDDIILKEYEDLDDARVLPKTMYELDPKGMSTLSNICTECGLRDLFLTSMKIYHS	not soluble
MERLFKHICLVARHSKPGITPALMQLANHLAAGGATVLIDKESVTPDEANGYPLIDRTDMGKLADLCIVLGGDGTMLSIARLLAPYRVPLVGINQGRLGFMTDIPLHEMLDSVDAILHGKFVPEDRILLQAAVVREDAEVASALAFNDVVFSRGAVGSMIEFEVFIDNQFVYSQRSDGLIVSTPTGSTAYSLASGGPILHPTLQAIALVPICPQSLSNRPIAVNDSCEVEFMLTRGLDARVHFDGQLHCDLMEMDRVLIRRYRNPLRILHPEGYNYYDMLRHKLHWGERLILEHHHHHH	soluble
MTYRIVLKSDPEKRFKNIRACKDEPMQMVVRNINNGADYVHPEQDVEVFSVKTANNNDLVCVKCTPDSYSSNPAVAEQVVLFCQPNSSDLGGFLQPNSMNFVTYANVFETDLYAFDYSGYGFSSGTQGEKNVYADVRAVYEKILEMRPDKKIVVMGYSIGTTAAVDLAATNPDRLAGVVLIAPFTSGLRLFSSKPDKPDTCWADSFKSFDKINNIDTRVLICHGDVDEVIPLSHGLALYEKLKNPVPPLIVHGANHHTILSGKYIHVFTRIANFLRNETLVSCRSAEVDSSQQQQQLSSKRTENE	not soluble
MSLGFVPVRGLHHFAYRCRDAEETRQFYEGILGLPLVHVVRAEEVPSTGEYCPYMHLFFEMKDGSCVAFFDLDDDTVPLPSSNTPVWAQHLALRVDSVAAVEEAKRKLEQAGVKVLGPVDHDGFVCSIYFFDPNGVRLELTTDTAEGHHHHHH	soluble
LDQILRATVEEVRAFLGTDRVKVYRFDPEGHGTVVAEARGGERLPSLLGLTFPAGDIPEEARRLFRLAQVRVIVDVEAQSRSISQPESWGLSARVPLGEPLQRPVDPCHVHYLKSMGVASSLVVPLMHHQELWGLLVSHHAEPRPYSQEELQVVQLLADQVSIAIAQAELSL	soluble
MSDAPTVVAYLGPAGTFTEEALYKFADAGVFGDGEIEQLPAKSPQEAVDAVRHGTAQFAVVAIENFVDGPVTPTFDALDQGSNVQIIAEEELDIAFSIMVRPGTSLADVKTLATHPVGYQQVKNWMATTIPDAMYLSASSNGAGAQMVAEGTADAAAAPSRAAELFGLERLVDDVADVRGARTRFVAVQAQAA	not soluble
MRLLVTGGAGFIGSHFVRQLLAGAYPDVPADEVIVLDSLTYAGNRANLAPVDADPRLRFVHGDIRDAGLLARELRGVDAIVHFAAESHVDRSIAGASVFTETNVQGTQTLLQCAVDAGVGRVVHVSTNQVYGSIDSGSWTESSPLEPNSPYAASKAGSDLVARAYHRTYGLDVRITRCCNNYGPYQHPEKLIPLFVTNLLDGGTLPLYGDGANVREWVHTDDHCRGIALVLAGGRAGEIYHIGGGLELTNRELTGILLDSLGADWSSVRKVADRKGHDLRYSLDGGKIERELGYRPQVSFADGLARTVRWYRENRGWWEPLKATAPQLPATAVEVSA	soluble
MNFDVVIIGGGLAGLTCGIALQKQGKQCAIINNGQAAIDFSSGSMDLLSCLPSGQKVHVFCEAFSELSQQAPEHPYCLLGQHQVVAKVQQFEQFMQELGLVGSHKQNHLRVTPLGGLRHTWLSPKSVPVIAENEHFPYRQIAILGIEGYHDFQPQILVDNLKQNAAFSHCDFSIGYLNIPELDYLRQNAREFRSVNIAQLLEHKLAFEDLVQEIKQAAGNAQAVFLLACFGLDDQRFFDSLKQATALALFELPTLPPSLIGIRQYRTLRDQFEKLGGLLLNGDRAVRAEFDGDRVARIFTTLHQEESINAAHFVLASGSFFSNGLVAEFERVKEPIFDLDIIGNKAFINSERVSWTDKRFAAAQPYQSAGVAINHHCQVYKNGHLIPNLYAIGNVIGGFWGIEQGCASGVSVVTALTVAEWVGGTKLEHHHHHH	not soluble
MARIIRRPLNLTAAVRFRLSPLSPFSGNSGSINSETTSWSELIRVPSLVEGCDYKHWLVLMKPPNGYPTRNHIVQSFVETLAMALGSEEEAKRSIYSVSTKYYYAFGCRIHEPLTYKIRSLPDVKWVLPDSFIVDGDNRYGGEPFVDGEVVPYDEKYHADWLRDQTDEDAKSGVVKKKHRRKRKKKLI	soluble
MSLGAMCFYHYWFLGKQLLEKPAEILLENKEINMPFLFSWANEPWTRAWDGSHRNVLMPQSYGTEADWEKHFNYLKPFFEDERYLKHDGKPIFIIYRTANFALCNEWISCWRELSKNTSFKDIHFVSSYTSFENDPRKLDFDAHLYFEPMCTVGHNLGYFNKKIKKINARLKRVINPKVWTTYVENTLQYDYLWEKILKKKINKTQYPGAFVDWDNSARKKSRALVIHGGSPKKFGLYLDKLYKRSIENNCPFLFINAWNEWAEGTYLEPDEKNKYSYLEELKKVIEKYEVEGHHHHHH	not soluble
MDIKNWSVYNKLYVGGGISDDVQTNTSETYDKEKDCWTLDNGHLVPHNYIMYKCEPVKHRYPLEKTQYTNDFLKYLESFIGS	not soluble
MTTLTLNTSLLSSRRILAAFSGGLDSTVLLHQLVLWRERHPDVTLRAIHIHHGLSPHADSWVRHCETVCERWQVPLVVERVTLADNGLGIEAHAREARYRAFAQTLLPGEVLATAQHLDDQCETFLLALKRGSGPAGLSAMGERSPFAGTLLLRPLLRETRKTLEQWAVRHGLCWIEDESNQDDAYDRNFLRLRALPLLQQRWPHFPAAVARSATLCAEQERLLDELLASDLTDCITAEGTLRLSPLMSMSDVRRAAILRRWLAMRNAPMPSRDALERIWQEVALARDDASPCLRFGDHEIRRYQSQLWWIKSVAGQHETTVAWPVWQTPLALPAGLGTVQLVPGGELRRPREEESVSIRFKAPGVLHIVGRNGGRKLKKIWQEQGIPPWRRDTTPLLFYGETLIAAAGVFVTREGAAEDKEGVSLVWHA	not soluble
MSLNIAVMEKGAAQPGDRLLSDVSLPALVIHNQALEHNIRWMQQFVTDSGAELAPHGKTSMVPALFRRQLDAGAWGMTLATAIQTQTAYAHGVKRVLMANQLVGAPNMAVIASLLADPMFEFHCMVDHPDNVAALGEFFAAHGLRLNVMIEYGVPGGRCGCRSEAEVLALADAVQAQPALALSGIEGYEGVIHGDQAIAGIKAFAASLVSLAVNLQDKGAFALDRPIVTASGSAWYDLIAEAFDAQAVRDRFLSVLRPGSYVVHDHGIYKDAQCCVLDRRAELSEALRPALEVWAHVQSMPEPGFAVIAMGKRDVAYDAGLPNPLLRYTPGVSSAPGDDVSACKVTAVMDQHAFMTVAADCELKVGDIISFGTSHPCLTFDKWRSGCLVDDDLRVIEPFHTCFEGHHHHHH	not soluble
MITPKGTHDAVAKFQKTDLHQDLDYIVLQQRRTQLETLINERESFVKNLCSLFHKIQNTKNYQEFVDVLAENRDLLREIFTVENGFQKQKWISNDDIPQIDWDKFALDINAYIAENDQLLALYEDGLL	not soluble
MVVIANAHNELIHDAVLDYYGKRLATCSSDKTIKIFEVEGETHKLIDTLTGHEGPVWRVDWAHPKFGTILASCSYDGKVLIWKEENGRWSQIAVHAVHSASVNSVQWAPHEYGPLLLVASSDGKVSVVEFKENGTTSPIIIDAHAIGVNSASWAPATIEEDGEHNGTKESRKFVTGGADNLVKIWKYNSDAQTYVLESTLEGHSDWVRDVAWSPTVLLRSYLASVSQDRTCIIWTQDNEQGPWKKTLLKEEKFPDVLWRASWSLSGNVLALSGGDNKVTLWKENLEGKWEPAGEVHQGGGGSGGGGATSKEFDGPCQNEIDLLFSECNDEIDNAKLIMKERRFTASYTFAKFSTGSMLLTKDIVGKSGVSIKRLPTELQRKFLFDDVYLDKEIEKVTIEARKSNPYPQISESSLLFKDALDYMEKTSSDYNLWKLSSILFDPVSYPYKTDNDQVKMALLKKERHCRLTSWIVSQIGPEIEEKIRNSSNEIEQIFLYLLLNDVVRASKLAIESKNGHLSVLISYLGSNDPRIRDLAELQLQKWSTGGCSIDKNISKIYKLLSGSPFEGLFSLKELESEFSWLCLLNLTLCYGQIDEYSLESLVQSHLDKFSLPYDDPIGVIFQLYAANENTEKLYKEVRQRTNALDVQFCWYLIQTLRFNGTRVFSKETSDEATFAFAAQLEFAQLHGHSLFVSCFLNDDKAAEDTIKRLVMREITLLRASTNDHILNRLKIPSQLIFNAQALKDRYEGNYLSE	soluble
GCPRILIRCKQDSDCLAGCVCGPNGFCGSPA	soluble
MSLEPDPDYVEPRLEGPQKQAASEIIEDVRKGGFHVSLIDGVTGSGKTEVYFEAVAETLRQGKQVLILLPEIALTAAFLERFQDRFGAKPAEWHSDLSPRMREKVWRQAVTGEIKVVAGARSALFLPFDNLGLIIVDEEHDPAYKQEDRVFYNARDMAVVRARIAEFPVVLVSATPSVESQVNGSSGRYNTIHLHTRFGDAAMPDLHLVDMRRHPPERGGFLSPVLLRGIGKTIEKGEQSLLFLNRRGYAPLTLCRVCGHRFQCPQCSSWLVEHRFRNQLQCHQCGHNEPTPDHCPECGTFDHLVACGPGVERIAEEVEKHFPEARTIVLSSDLMGVKRLRLELEAIVKGEADIVIGTQLVAKGHNFPLMTLVGIVDADLGLANGDPRAAERTFQLLSQVTGRAGRTGLKSHGLLQTYQPQHPVMQAIVSGDASAFYEREIVEREKAVLPPFGRLASIIVSADTRAEAETHARGLRAAAPQVTGIMLLGPAEAPLALIRGRHRFRLLVHGRRNSDMQSFLRTLLASGPKERGSVHVQLDIDPQSFLEGHHHHHH	soluble
MSLNASEAVYKAILDSGVDFVTSVPCANLKTVLNYLNDNKDIQHIPVTREEEGIGVCAGAYLGGRKTALLMQNSGLGNSINAIGSLVKVYKIPILIIISHRGDLKEKISAQIPMGQWTKKLLETVEIPYFSPKTPDEAYKLIKDASELSINMEYPVAILLDALYWEHDKEGHHHHHH	soluble

Source: the DeepSol protein solubility set
